Laboratory results taken from US12168686 (CLOVER BIOPHARMACEUTICALS, dated 2024).

Columns and labels:
[1] = molecular target: T1, soluble DR5-Fc fusion protein (UniProt O14763 56-182, limits assumed, biotin-labeled (sites not given)); assay: BLI (ForteBio Octet), biotin-labeled DR5-Fc on streptavidin sensors
T1 construct: It was biotinylated and captured on streptavidin biosensors; also called DR5 (TRAIL-R2); biotinylated DR5-Fc; not shown: Fc part
Text: (§1) Figure 7: FIG. 7 is the kinetic studies of TRAIL-Trimer, TRAIL-Fc and native TRAIL binding to the soluble DR5-Fc fusion protein assessed by biolayer interferometry measurements. The Super Streptavidin biosensor tips of the ForteBio Octet RED 96 were coated with biotinylated DR5-Fc. The biosensor tips were dipped in increasing concentrations gradient of TRAIL-Trimer, TRAIL-Fc and native TRAIL to measure their binding to DR5-Fc and subsequently moved to wells containing buffer (PBS) to measure dissociation rates. The dissociation constant Kd was shown for each graph. Figure 7: Figure 7:
(§2) Comparison of TRAIL-Trimer, TRAIL-Fc and Native TRAIL in Receptor Binding Avidity In Vitro DR5 (TRAIL-R2) is one of TRAIL's functional receptors which initiates extrinsic apoptosis pathway signaling upon activation; thus, we examined the binding kinetic profile of TRAIL-Trimer, TRAIL-Fc and native TRAIL to a soluble DR5-Fc fusion protein. With Fortebio biolayer interferometry measurement, the biotin-labeled DR5-Fc was first captured on Streptavidin (SA) sensors, and real-time binding curves were measured and plotted by applying the sensor in gradient concentrations (15.4 nM-123.5 nM) of the three analytes (FIG. 7).

[2] = molecular target: T1, soluble DR5-Fc fusion protein; assay: biolayer interferometry (ForteBio Octet RED 96), biotinylated DR5-Fc captured on streptavidin biosensor tips, TRAIL-Trimer in solution at graded concentrations
Text: as §1, §2

T1 sequence (O14763 56-182 limits assumed): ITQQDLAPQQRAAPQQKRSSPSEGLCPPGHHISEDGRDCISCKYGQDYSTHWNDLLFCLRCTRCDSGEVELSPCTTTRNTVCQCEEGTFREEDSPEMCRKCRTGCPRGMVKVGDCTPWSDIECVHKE

koff [1]: < 1e-07 s⁻¹
kon [1]: 81000 M⁻¹ s⁻¹
Kd [2]: < 1 pM
B1: TRAIL-Trimer (mature human TRAIL fused to the C-propeptide of human alpha1(I) collagen, Trimer-Tag, with a mutated BMP-1 site) (ligand)
chain: VRERGPQRVAAHITGTRGRSNTLSSPNSKNEKALGRKINSWESSRSGHSFLSNLHLRNGELVIHEKGFYYIYSQTYFRFQEEIKENTKNDKQMVQYIYKYTSYPDPILLMKSARNSCWSKDAEYGLYSIYQGGIFELKENDRIFVSVTNEHLIDMDHEASFFGAFLVGGSNGLPGPIGPPGPRGRTGDAGPVGPPGPPGPPGPPGPPSAGFDFSFLPQPPQEKAHDGGRYYRANDANVVRDRDLEVDTTLKSLSQQIENIRSPEGSRKNPARTCRDLKMCHSDWKSGEYWIDPNQGCNLDAIKVFCNMETGETCVYPTQPSVAQKNWYISKNPKDKRHVWFGESMTDGFQFEYGGQGSDPADVAIQLTFLRLMSTEASQNITYHCKNSVAYMDQQTGNLKKALLLKGSNEIEIRAEGNSRFTYSVTVDGCTSHTGAWGKTVIEYKTTKSSRLPIIDVAPLDVGAPDQEFGFDVGPVCFL
notes: also called SCB-313; disulfide bond-linked trimeric TRAIL fusion protein
